Results reported in patent publication US20150017095A1 (AbbVie / Abbott, published 2015).

Legend:
[1] = molecular target: T1, Recombinant Human IL-1β (human, UniProt P01584 117-269); assay: direct bind ELISA, antigen coated on plate
T1 construct: also called IL-1b; IL-1B
Procedure: (§1) Enzyme Linked Immunosorbent Assays to screen for antibodies that bind a desired target antigen were performed as follows. High bind ELISA plates (Corning Costar #3369, Acton, Mass.) were coated with 100 μL/well of 10 μg/ml of desired target antigen (R&D Systems, Minneapolis, Minn.) or desired target antigen extra-cellular domain/FC fusion protein (R&D Systems, Minneapolis, Minn.) or monoclonal mouse anti-polyHistidine antibody (R&D Systems # MAB050, Minneapolis, Minn.) in phosphate buffered saline (10×PBS, Abbott Bioresearch Center, Media Prep# MPS-073, Worcester, Mass.) overnight at 4° C. Plates were washed four times with PBS containing 0.02% Tween 20. Plates were blocked by the addition of 300 μL/well blocking solution (non-fat dry milk powder, various retail suppliers, diluted to 2% in PBS) for ½ hour at room temperature. Plates were washed four times after blocking with PBS containing 0.02% Tween 20.
(§2) Plates were washed 4 times with PBS containing 0.02% Tween 20.
(§3) One hundred microliters of enhanced TMB solution (Neogen Corp. #308177, K Blue, Lexington, Ky.) was added to each well and incubated for 10 minutes at room temperature. The reaction was stopped by the addition of 50 μL 1N sulphuric acid.

[2] = molecular target: T1, Recombinant Human IL-1β; assay: BIACORE SPR, antibody captured, antigen in flow
Procedure: (§4) The BIACORE assay (Biacore, Inc, Piscataway, N.J.) determines the affinity of antibodies or DVD-Ig with kinetic measurements of on-rate and off-rate constants. […] All chemicals are obtained from Biacore® AB (Uppsala, Sweden) or otherwise from a different source as described in the text. For example, approximately 5000 RU of goat anti-mouse IgG, (Fcγ), fragment specific polyclonal antibody (Pierce Biotechnology Inc, Rockford, Ill.) diluted in 10 mM sodium acetate (pH 4.5) is directly immobilized across a CM5 research grade biosensor chip using a standard amine coupling kit according to manufacturer's instructions and procedures at 25 μg/ml. Unreacted moieties on the biosensor surface are blocked with ethanolamine. Modified carboxymethyl dextran surface in flowcell 2 and 4 is used as a reaction surface. Unmodified carboxymethyl dextran without goat anti-mouse IgG in flow cell 1 and 3 is used as the reference surface. For kinetic analysis, rate equations derived from the 1:1 Langmuir binding model are fitted simultaneously to association and dissociation phases of all eight injections (using global fit analysis) with the use of Biaevaluation 4.0.1 software. Purified antibodies or DVD-Ig are diluted in HEPES-buffered saline for capture across goat anti-mouse IgG specific reaction surfaces. Antibodies or DVD-Ig to be captured as a ligand (25 μg/m) are injected over reaction matrices at a flow rate of 5 μl/min. The association and dissociation rate constants, kₒₙ (M⁻¹s⁻¹) and koff (s⁻¹) are determined under a continuous flow rate of 25 μl/min. Rate constants are derived by making kinetic binding measurements at different antigen concentrations ranging from 10-200 nM. The equilibrium dissociation constant (M) of the reaction between antibodies or DVD-Igs and the target antigen is then calculated from the kinetic rate constants by the following formula: KD=koff/kₒₙ. Binding is recorded as a function of time and kinetic rate constants are calculated.

[3] = molecular target: T2, Recombinant Human β-NGF (human, UniProt P01138 122-239, limits assumed); assay: direct bind ELISA, antigen coated on plate
Procedure: as §1, §2, §3

[4] = molecular target: T2, Recombinant Human β-NGF; assay: BIACORE SPR, antibody captured, antigen in flow; Biacore, antibody captured, 25 C, HBS-EP
Procedure: as §4, with “For kinetic analysis, rate equations derived from the 1:1 Langmuir binding model are fitted simultaneously to association and dissociation phases of all eight injections (using global fit analysis) with the use of Biaevaluation 4.0.1 software. Purified antibodies or DVD-Ig are diluted in HEPES-buffered saline for capture across goat anti-mouse IgG specific reaction surfaces. Antibodies or DVD-Ig to be captured as a ligand (25 μg/m) are injected over reaction matrices at a flow rate of 5 μl/min.” left out, “Rate constants are derived by making kinetic binding measurements at different antigen concentrations ranging from 10-200 nM.” left out

[5] = molecular target: T2, Recombinant Human β-NGF; assay: BIACORE SPR, antibody captured, antigen in flow
Procedure: as §4

[6] = molecular target: T2, Recombinant Human β-NGF; assay: BIACORE SPR, DVD-Ig captured, antigen in flow (N-terminal VD)
Procedure: as §4

[7] = molecular target: T2, Recombinant Human β-NGF; assay: direct bind ELISA, antigen coated on plate (N-terminal VD)
Procedure: as §1, §2, §3

T2 sequence (P01138 122-239 limits assumed): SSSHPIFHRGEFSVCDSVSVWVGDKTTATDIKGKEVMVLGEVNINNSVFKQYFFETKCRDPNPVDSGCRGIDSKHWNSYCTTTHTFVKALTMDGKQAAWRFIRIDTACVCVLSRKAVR

B1: AB032 anti-IL-1b parent antibody (antibody, human IgG1, V domains shown)
VH: QVQLVESGGGVVQPGRSLRLSCAASGFTFSVYGMNWVRQAPGKGLEWVAIIWYDGDNQYYADSVKGRFTISRDNSKNTLYLQMNGLRAEDTAVYYCARDLRTGPFDYWGQGTLVTVSS
VL: EIVLTQSPDFQSVTPKEKVTITCRASQSIGSSLHWYQQKPDQSPKLLIKYASQSFSGVPSRFSGSGSGTDFTLTINSLEAEDAAAYYCHQSSSLPFTFGPGTKVDIKR
[1]
  EC50: 5.27 nM
[2]
  Kd: 0.0131 nM

B2: AB020 anti-NGF parent antibody (antibody, human IgG1, V domains shown)
VH: QVQLQESGPGLVKPSETLSLTCTVSGFSLIGYDLNWIRQPPGKGLEWIGIIWGDGTTDYNSAVKSRVTISKDTSKNQFSLKLSSVTAADTAVYYCARGGYWYATSYYFDYWGQGTLVTVSS
VL: DIQMTQSPSSLSASVGDRVTITCRASQSISNNLNWYQQKPGKAPKLLIYYTSRFHSGVPSRFSGSGSGTDFTFTISSLQPEDIATYYCQQEHTLPYTFGQGTKLEIKR
[3]
  EC50: 2.59 nM
[4]
  Kd: 0.428 nM
[5]
  koff: 0.000112 s⁻¹
  kon: 261000 M⁻¹ s⁻¹

B3: DVD164 (NGF / PGE2 DVD-Ig) (bispecific antibody)
VH: QVQLQESGPGLVKPSETLSLTCTVSGFSLIGYDLNWIRQPPGKGLEWIGIIWGDGTTDYNSAVKSRVTISKDTSKNQFSLKLSSVTAADTAVYYCARGGYWYATSYYFDYWGQGTLVTVSSASTKGPEVQLVQSGAEVKKPGASVKVSCKASGYTFTKYWLGWVRQAPGQGLEWMGDIYPGYDYTHYNEKFKDRVTLTTDTSTSTAYMELRSLRSDDTAVYYCARSDGSSTYWGQGTLVTVSS
VL: DIQMTQSPSSLSASVGDRVTITCRASQSISNNLNWYQQKPGKAPKLLIYYTSRFHSGVPSRFSGSGSGTDFTFTISSLQPEDIATYYCQQEHTLPYTFGQGTKLEIKRTVAAPDVLMTQTPLSLPVTPGEPASISCTSSQNIVHSNGNTYLEWYLQKPGQSPQLLIYKVSNRFSGVPDRFSGSGSGTDFTLKISRVEAEDVGVYYCFQVSHVPYTFGGGTKVEIKR
notes: Outer domain is AB020 (NGF), inner domain is AB048 (PGE2); also called VD164H; VD164L
[6]
  Kd: 0.248 nM
  koff: 0.000103 s⁻¹
  kon: 414000 M⁻¹ s⁻¹
[7]
  EC50: 1.21 nM
